The source of these data is PMC7773637, “Short-Chain Dehydrogenase NcmD Is Responsible for the C-10 Oxidation of Nocamycin F in Nocamycin Biosynthesis” (Frontiers in Microbiology, 2020).

By Km is commonly meant the concentration of substrate that gives half-maximal velocity. Usually kcat stands for the maximal rate divided by the concentration of active sites.

For this data set, the system named is CC1=CC(O)C2OC1(C(C)C(C)O)OC(C(C)/C=C(C)/C=C/C(O)=C1C(=O)CNC1=O)C2C. In words: HPLC product quantification, initial rates, Michaelis-Menten fit. To be noted: 2 mM NAD^+, pH 8.5, 45°C, 0.2 μM NcmD. Format: biochemical, Saccharothrix syringae.

For the substance NcmD (Saccharothrix syringae), the Michaelis constant (Km) amounted to 131 ± 13 µM and the catalytic constant (kcat) was determined as 1.08 ± 0.083 s⁻¹.
